The results in this text go back to patent publication US9957297B2, “Template-fixed peptidomimetics as inhibitors of FPR1” (POLYPHOR AG, priority 2011, dated 2018).

Bridges are numbered along the chain shown (N, C = ends). [ ]: non-standard residue; d: D form. hSer = N[C@@H](CCO)C(=O)O; Dab = NCC[C@H](N)C(=O)O

First the molecules themselves.
B1: cyclo(-Tyr-His-Lys-Cys-His-Gly-^DPro-Trp-Thr-Ile-Cys-Tyr-Glu-Hse-^DPro-Pro-) (peptide)
peptide: cyclo(YHKCHG[dP]WTICYE[hSer][dP]P)
modifications: disulfide 4-11
SMILES: CC[C@H](C)[C@@H]1NC(=O)[C@H]([C@@H](C)O)NC(=O)[C@H](Cc2c[nH]c3ccccc23)NC(=O)[C@H]2CCCN2C(=O)CNC(=O)[C@H](Cc2c[nH]cn2)NC(=O)[C@@H]2CSSC[C@H](NC1=O)C(=O)N[C@@H](Cc1ccc(O)cc1)C(=O)N[C@@H](CCC(=O)O)C(=O)N[C@@H](CCO)C(=O)N1CCC[C@@H]1C(=O)N1CCC[C@H]1C(=O)N[C@@H](Cc1ccc(O)cc1)C(=O)N[C@@H](Cc1c[nH]cn1)C(=O)N[C@@H](CCCCN)C(=O)N2
B2: cyclo(-Tyr-His-Lys-Cys-His-Gly-^DPro-Trp-Thr-Ile-Cys-Tyr-Glu-Dab-^DPro-Pro-) (peptide)
peptide: cyclo(YHKCHG[dP]WTICYE[Dab][dP]P)
modifications: disulfide 4-11
SMILES: CC[C@H](C)[C@@H]1NC(=O)[C@H]([C@@H](C)O)NC(=O)[C@H](Cc2c[nH]c3ccccc23)NC(=O)[C@H]2CCCN2C(=O)CNC(=O)[C@H](Cc2c[nH]cn2)NC(=O)[C@@H]2CSSC[C@H](NC1=O)C(=O)N[C@@H](Cc1ccc(O)cc1)C(=O)N[C@@H](CCC(=O)O)C(=O)N[C@@H](CCN)C(=O)N1CCC[C@@H]1C(=O)N1CCC[C@H]1C(=O)N[C@@H](Cc1ccc(O)cc1)C(=O)N[C@@H](Cc1c[nH]cn1)C(=O)N[C@@H](CCCCN)C(=O)N2
B3: cyclo(-Tyr-His-Lys-Cys-His-Gly-^DPro-Trp-Thr-Ile-Cys-Tyr-Glu-His-^DPro-Pro-) (peptide)
peptide: cyclo(YHKCHG[dP]WTICYEH[dP]P)
modifications: disulfide 4-11
SMILES: CC[C@H](C)[C@@H]1NC(=O)[C@H]([C@@H](C)O)NC(=O)[C@H](Cc2c[nH]c3ccccc23)NC(=O)[C@H]2CCCN2C(=O)CNC(=O)[C@H](Cc2c[nH]cn2)NC(=O)[C@@H]2CSSC[C@H](NC1=O)C(=O)N[C@@H](Cc1ccc(O)cc1)C(=O)N[C@@H](CCC(=O)O)C(=O)N[C@@H](Cc1c[nH]cn1)C(=O)N1CCC[C@@H]1C(=O)N1CCC[C@H]1C(=O)N[C@@H](Cc1ccc(O)cc1)C(=O)N[C@@H](Cc1c[nH]cn1)C(=O)N[C@@H](CCCCN)C(=O)N2
B4: cyclo(-Tyr-His-Lys-Cys-His-Gly-^DPro-Trp-Thr-Ile-Cys-Tyr-Glu-Thr-^DPro-Pro-) (peptide)
peptide: cyclo(YHKCHG[dP]WTICYET[dP]P)
modifications: disulfide 4-11
SMILES: CC[C@H](C)[C@@H]1NC(=O)[C@H]([C@@H](C)O)NC(=O)[C@H](Cc2c[nH]c3ccccc23)NC(=O)[C@H]2CCCN2C(=O)CNC(=O)[C@H](Cc2c[nH]cn2)NC(=O)[C@@H]2CSSC[C@H](NC1=O)C(=O)N[C@@H](Cc1ccc(O)cc1)C(=O)N[C@@H](CCC(=O)O)C(=O)N[C@@H]([C@@H](C)O)C(=O)N1CCC[C@@H]1C(=O)N1CCC[C@H]1C(=O)N[C@@H](Cc1ccc(O)cc1)C(=O)N[C@@H](Cc1c[nH]cn1)C(=O)N[C@@H](CCCCN)C(=O)N2
B5: cyclo(-Tyr-His-Lys-Cys-His-Gly-^DPro-Trp-Thr-Ile-Cys-Tyr-Glu-Gly-^DPro-Pro-) (peptide)
peptide: cyclo(YHKCHG[dP]WTICYEG[dP]P)
modifications: disulfide 4-11
SMILES: CC[C@H](C)[C@@H]1NC(=O)[C@H]([C@@H](C)O)NC(=O)[C@H](Cc2c[nH]c3ccccc23)NC(=O)[C@H]2CCCN2C(=O)CNC(=O)[C@H](Cc2c[nH]cn2)NC(=O)[C@@H]2CSSC[C@H](NC1=O)C(=O)N[C@@H](Cc1ccc(O)cc1)C(=O)N[C@@H](CCC(=O)O)C(=O)NCC(=O)N1CCC[C@@H]1C(=O)N1CCC[C@H]1C(=O)N[C@@H](Cc1ccc(O)cc1)C(=O)N[C@@H](Cc1c[nH]cn1)C(=O)N[C@@H](CCCCN)C(=O)N2

This test concerns the target T1, Formyl-Peptide Receptor 1 (UniProt P21462 1-350, limits assumed).
T1 sequence (looked up): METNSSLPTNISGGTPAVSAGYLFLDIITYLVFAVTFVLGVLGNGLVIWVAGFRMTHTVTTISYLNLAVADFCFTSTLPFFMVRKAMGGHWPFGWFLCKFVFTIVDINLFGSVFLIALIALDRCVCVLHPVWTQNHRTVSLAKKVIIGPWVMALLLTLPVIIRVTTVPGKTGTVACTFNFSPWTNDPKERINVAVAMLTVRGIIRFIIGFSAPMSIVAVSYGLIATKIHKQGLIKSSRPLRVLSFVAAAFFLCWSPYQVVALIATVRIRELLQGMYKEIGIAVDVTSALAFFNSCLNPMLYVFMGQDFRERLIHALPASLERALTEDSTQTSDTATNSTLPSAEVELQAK
As to the kind of experiment: cell-based or functional assay.
As for B1, the “β-Arrestin IC50” value amounted to 24 nM.
For the molecule B2, the “β-Arrestin IC50” value amounted to 82 nM.
As for B3, the “β-Arrestin IC50” value stood at 73 nM.
With B4 the figure was 197 nM; with B5, 250 nM.
